The results in this text go back to article PMC3805524, “GmSAL1 Hydrolyzes Inositol-1,4,5-Trisphosphate and Regulates Stomatal Closure in Detached Leaves and Ion Compartmentalization in Plant Cells” (PLoS ONE, 2013).

Substrate in the data set: O=P(O)(O)O[C@@H]1[C@H](O)[C@H](O)[C@@H](OP(=O)(O)O)[C@H](OP(=O)(O)O)[C@H]1O
Nature of the data set: purified protein. The class given is biochemical, Glycine max. Conditions: 25 mM Tris-HCl pH 7.5, 1 mM MgCl2, 37°C, 30 min, IP3 0.0125-0.2 mM.

B1: GmSAL1 (Glycine max) (protein)
chain: MPYEKEFAAAKKAATLAARLCKKVQKALLQSDVHSKSDKSPVTVADYGSQALVSFILERELPSEPFSLVAEEDSGDLRKESGQDTLKRITELVNDTLASEGSNSFSTLTTDDVLAAIDGGKSEGGSVGRHWVLDPIDGTKGFVRGDQYAIALALLDEGKVVLGVLACPNLPLASIGSNQQLSSSNEVGCLFFAKVGDGTYMQALGGSTQTRVHVCDIDNPEEASFFESFEAAHSSHDLSSSIAEKLGVKAPPVRIDSQAKYGALSRGDGAIYLRFPHKGYREKIWDHAAGSIVVTEAGGIAMDAAGNPLDFSKGKFLDVVSGIIVTNQKLKASLLRAVKEALNEKVSSL
notes: cloning primers encode N-terminal MPYEKEF and C-terminal KVSSL
As for B1, the Km – broadly, the concentration of substrate that gives half-maximal velocity – was found to be 10.8 ± 0.1 µM; the kcat (usually the number of substrate molecules converted per active site and unit of time at saturation) is 1.13 ± 0.217 s⁻¹.
